Results published in US20250074943A1, “DLL3 BINDING PEPTIDES AND USES THEREOF” (AMGEN INC., priority 2021, published 2025).

Assays:
[1] = target: rat DLL3 expressed on CHO cells (rat) (UniProt O88671); test: flow cytometry, 10 ug/ml AMG 757 on High CHO rtDLL3 cells, anti-human IgG Fc-APC
[2] = target: mouse DLL3 expressed on CHO cells (mouse) (UniProt O88516); test: flow cytometry, 10 ug/ml AMG 757 on CHO muDLL3 cells, anti-human IgG Fc-APC
[3] = target: human FLT3 expressed on CHO cells (human) (UniProt P36888); test: flow cytometry, 10 ug/ml AMG 757 on CHO huFTL3 (negative control) cells, anti-human IgG Fc-APC
[4] = target: human DLL3 expressed on the surface of cells (human) (UniProt Q9NYJ7); test: flow cytometry, 10 ug/ml AMG 757 on CHO huDLL3 cells, anti-human IgG Fc-APC
[5] = target: rat DLL3 expressed on CHO cells (rat) (UniProt O88671); test: flow cytometry, 10 ug/ml AMG 757 on Low CHO rtDLL3 cells, anti-human IgG Fc-APC
[6] = target: cynomolgus monkey DLL3 expressed on CHO cells (cynomolgus monkey); test: flow cytometry, 10 ug/ml AMG 757 on CHO cynoDLL3 cells, anti-human IgG Fc-APC
Sequence of cynomolgus monkey DLL3 expressed on CHO cells (cynomolgus monkey) (chain, as listed by the source, form in doubt): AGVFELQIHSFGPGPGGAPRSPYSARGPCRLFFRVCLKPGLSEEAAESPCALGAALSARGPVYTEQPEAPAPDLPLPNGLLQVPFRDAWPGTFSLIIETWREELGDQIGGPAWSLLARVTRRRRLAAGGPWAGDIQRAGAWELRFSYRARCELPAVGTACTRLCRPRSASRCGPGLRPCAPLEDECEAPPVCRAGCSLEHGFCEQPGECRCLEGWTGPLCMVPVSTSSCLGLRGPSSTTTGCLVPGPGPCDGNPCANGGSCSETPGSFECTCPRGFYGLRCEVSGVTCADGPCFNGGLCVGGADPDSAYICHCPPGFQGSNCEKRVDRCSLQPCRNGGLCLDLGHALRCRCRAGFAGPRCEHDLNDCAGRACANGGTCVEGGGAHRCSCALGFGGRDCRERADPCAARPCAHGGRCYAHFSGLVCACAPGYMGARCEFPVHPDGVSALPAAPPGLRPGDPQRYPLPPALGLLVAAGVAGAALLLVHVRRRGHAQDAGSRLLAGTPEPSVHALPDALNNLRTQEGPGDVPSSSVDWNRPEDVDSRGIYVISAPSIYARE

Sequence of rat DLL3 expressed on CHO cells (rat) (O88671 33-589): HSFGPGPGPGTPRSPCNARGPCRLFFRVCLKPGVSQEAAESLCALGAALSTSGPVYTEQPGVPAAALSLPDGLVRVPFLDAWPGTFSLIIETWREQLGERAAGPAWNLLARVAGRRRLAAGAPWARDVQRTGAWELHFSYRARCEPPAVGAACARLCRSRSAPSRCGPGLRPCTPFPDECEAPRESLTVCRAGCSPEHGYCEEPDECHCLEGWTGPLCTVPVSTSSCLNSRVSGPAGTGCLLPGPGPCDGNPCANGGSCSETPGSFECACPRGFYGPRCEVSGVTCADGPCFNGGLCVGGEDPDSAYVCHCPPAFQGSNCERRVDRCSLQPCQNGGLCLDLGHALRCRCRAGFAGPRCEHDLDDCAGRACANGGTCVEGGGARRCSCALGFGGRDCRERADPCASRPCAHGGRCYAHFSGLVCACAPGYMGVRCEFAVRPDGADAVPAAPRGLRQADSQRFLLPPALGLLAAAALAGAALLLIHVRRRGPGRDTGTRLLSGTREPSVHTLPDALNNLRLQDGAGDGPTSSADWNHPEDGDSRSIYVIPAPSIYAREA
Sequence of mouse DLL3 expressed on CHO cells (mouse) (O88516 33-592): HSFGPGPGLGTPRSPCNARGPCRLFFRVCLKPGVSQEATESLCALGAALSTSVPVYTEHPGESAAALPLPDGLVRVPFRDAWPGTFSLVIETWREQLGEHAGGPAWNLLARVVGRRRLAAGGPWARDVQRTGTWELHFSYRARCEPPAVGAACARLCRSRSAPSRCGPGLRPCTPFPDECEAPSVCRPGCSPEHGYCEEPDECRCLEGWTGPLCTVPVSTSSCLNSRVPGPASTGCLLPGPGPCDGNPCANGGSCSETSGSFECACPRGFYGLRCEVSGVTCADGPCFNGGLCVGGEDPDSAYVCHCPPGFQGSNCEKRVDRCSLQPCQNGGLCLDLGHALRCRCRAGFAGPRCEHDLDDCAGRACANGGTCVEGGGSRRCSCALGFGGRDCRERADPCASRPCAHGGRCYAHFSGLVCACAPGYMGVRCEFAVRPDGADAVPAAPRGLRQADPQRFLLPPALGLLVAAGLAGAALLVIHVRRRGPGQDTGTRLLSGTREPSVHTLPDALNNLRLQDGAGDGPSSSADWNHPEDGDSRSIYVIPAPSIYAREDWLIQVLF
Sequence of human DLL3 expressed on the surface of cells (human) (Q9NYJ7 27-618 limits assumed): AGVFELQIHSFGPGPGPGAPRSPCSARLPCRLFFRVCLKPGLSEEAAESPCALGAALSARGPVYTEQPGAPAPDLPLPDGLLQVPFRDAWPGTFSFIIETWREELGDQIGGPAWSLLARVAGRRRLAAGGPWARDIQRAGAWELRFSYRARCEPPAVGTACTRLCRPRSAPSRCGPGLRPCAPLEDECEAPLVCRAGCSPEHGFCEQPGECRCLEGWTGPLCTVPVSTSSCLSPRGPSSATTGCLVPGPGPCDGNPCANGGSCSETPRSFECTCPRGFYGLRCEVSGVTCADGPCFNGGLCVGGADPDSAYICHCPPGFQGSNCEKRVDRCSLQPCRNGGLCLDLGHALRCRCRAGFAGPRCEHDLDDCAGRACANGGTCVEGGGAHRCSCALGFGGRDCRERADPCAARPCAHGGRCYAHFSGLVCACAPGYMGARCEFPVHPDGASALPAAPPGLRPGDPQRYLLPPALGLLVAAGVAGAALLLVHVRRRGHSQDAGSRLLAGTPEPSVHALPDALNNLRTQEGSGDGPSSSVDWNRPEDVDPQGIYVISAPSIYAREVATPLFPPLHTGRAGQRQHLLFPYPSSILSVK

DLL3 positive cells (%) [1]: 98.6%
DLL3 positive cells (%) [2]: 99.5%
DLL3 positive cells (%) [3]: 3.3%
DLL3 positive cells (%) [4]: 99.7%
DLL3 positive cells (%) [5]: 98.6%
DLL3 positive cells (%) [6]: 98.4%
Substance: AMG 757 (bispecific antibody)
